Assays:
[1] = target: EGFR-Fc, P00533; experiment: TR-FRET competitive displacement of biotin-EGF from EGFR-Fc
[2] = target: EGFR of HaCaT (human keratinocyte) cells (human), P00533; experiment: cell-based or functional assay

IC50 [1]: 1720 nM | HaCaT cell proliferation (crystal violet, 72 h), EC50 [2]: 130 nM
Binder: QCKPNGAKCTEISIPPCCSNFCLRYAGQKSGTCANR (modifications not checked) [bleogen pB1]

From patent US20220257706A1, “EPIDERMAL GROWTH FACTOR RECEPTOR (EGFR) LIGANDS” (NANYANG TECHNOLOGICAL UNIVERSITY, priority 2019, published 2022)
